The series concerns the molecule itself. Kind of series: native gel or EMSA; native-PAGE (10% gel) of the load (soluble E. coli lysate), unbound, wash and elution fractions of DEAE Sepharose and DEAE Sephadex batch chromatography, 20 mM Tris-HCl, 50 mM NaCl, pH 7.0 to 9.0 at 25°C; unbound fractions more than 90% pure. For orientation: Mobility shift assays separate free from complexed probe on a gel.

B1: Helicobacter pylori neutrophil-activating protein (natural protein)
chain: MKTFEILKHLQADAIVLFMKVHNFHWNVKGTDFFNVHKATEEIYEEFADMFDDLAERIVQLGHHPLVTLSEAIKLTRVKEETKTSFHSKDIFKEILEDYKYLEKEFKELSNTAEKEGDKVTVTYADDQLAKLQKSIWMLQAHLA
notes: HP-NAP, product of the napA gene (HP0243) amplified from genomic DNA of H. pylori strain 26695; subunit of approximately 17 kDa; It states no tag and speaks of recombinant HP-NAP in its native form; its own experiments show only an oligomer; also called HP-NAP; recombinant HP-NAP; source: E. coli BL21(DE3) (pET42a-NAP, IPTG); in soluble lysate and DEAE batch chromatography fractions; copies: 12
With B1, the binding result is given as “binds”.
